Results on 4 proteins are retold here after article PMC11088703, “Structural basis of human NOX5 activation” (Nature Communications, 2024).

Where a chain is given by its changes, count along the chain named.

Data set [1] concerns the molecule itself. Kind of data set: cryo-EM structure; purified NOX5 in 0.05% digitonin; pre-reaction (5 mM EGTA + 1 mM NADPH), intermediate (1 mM CaCl2 + 1 mM NADPH) and post-reaction (1 mM CaCl2 + 1.2 mM NADP+ + 60 uM FAD) states; C2 symmetry imposed.
Data set [2] concerns the molecule itself. Kind of data set: SEC; Trp fluorescence-based gel filtration; Superose 6 Increase; 20 mM Tris pH 8.0, 200 mM NaCl, 0.004% LMNG/CHS; excitation 280 nm, emission 350 nm.

B1: full-length human NADPH oxidase 5 (NOX5), NOX5-β variant (enzyme, UniProt Q96PH1-4 1-719, looked up)
chain: MSAEEDARWLRWVTQQFKTIAGEDGEISLQEFKAALHVKESFFAERFFALFDSDRSGTITLQELQEALTLLIHGSPMDKLKFLFQVYDIDGSGSIDPDELRTVLQSCLRESAISLPDEKLDQLTLALFESADADGNGAITFEELRDELQRFPGVMENLTISAAHWLTAPAPRPRPRRPRQLTRAYWHNHRSQLFCLATYAGLHVLLFGLAASAHRDLGASVMVAKGCGQCLNFDCSFIAVLMLRRCLTWLRATWLAQVLPLDQNIQFHQLMGYVVVGLSLVHTVAHTVNFVLQAQAEASPFQFWELLLTTRPGIGWVHGSASPTGVALLLLLLLMFICSSSCIRRSGHFEVFYWTHLSYLLVWLLLIFHGPNFWKWLLVPGILFFLEKAIGLAVSRMAAVCIMEVNLLPSKVTHLLIKRPPFFHYRPGDYLYLNIPTIARYEWHPFTISSAPEQKDTIWLHIRSQGQWTNRLYESFKASDPLGRGSKRLSRSVTMRKSQRSSKGSEILLEKHKFCNIKCYIDGPYGTPTRRIFASEHAVLIGAGIGITPFASILQSIMYRHQKRKHTCPSCQHSWIEGVQDNMKLHKVDFIWINRDQRSFEWFVSLLTKLEMDQAEEAQYGRFLELHMYMTSALGKNDMKAIGLQMALDLLANKEKKDSITGLQTRTQPGRPDWSKVFQKVAAEKKGKVQVFFCGSPALAKVLKGHCEKFGFRFFQENF
notes: NADPH oxidase 5, human, NOX5-β variant (called v2 isoform in the methods); full length; a Zn2+ is modelled between the two CXXC motifs at the dimer interface; also called NOX5 v2 isoform; hNOX5; source: HEK293F, BacMam virus, purified (GFP-nanobody beads, preScission cleavage, Superose 6 SEC in digitonin); not shown: GFP, N-terminal, cleaved
Usually stoichiometry N stands for the number of molecules, sites or subunits per partner or assembly. As for B1, the “stoichiometry N” value in data set [1] was determined as 2.

B2: NOX5 R426A (enzyme, human, UniProt Q96PH1-4 1-719, looked up)
chain: B1 chain with R426A
notes: NADPH oxidase 5, human, NOX5-β variant (v2 isoform in the methods; UniProt Q96PH1-4), point mutant; source: HEK293F, purified with the same protocol as NOX5 wild type (GFP-nanobody beads, preScission cleavage); not shown: GFP, N-terminal, cleaved
Take B2: the binding result in data set [2] is reported as “binds”.

B3: NOX5 R530A (enzyme, human, UniProt Q96PH1-4 1-719, looked up)
chain: B1 chain with R530A
notes: as for B2
For the protein B3, the binding result in data set [2] is reported as “binds”.

B4: NOX5 R531A (enzyme, human, UniProt Q96PH1-4 1-719, looked up)
chain: B1 chain with R531A
notes: as for B2
B4: the binding result in data set [2] was “binds”.
